Measurements reported in patent publication US20240026007A1 (Boehringer Ingelheim, published 2024).

B1: ABX0020 (antibody, human IgG1, kappa)
heavy: not shown
light: DIQMTQSPSSLSASVGDRVTITCRASQSISSYLNWYQQKPGKAPKLLIYAASSLQSGVPSRFSGSGSGTDFTLTISSLQPEDFATYYCQQSATYWDMFGQGTKVEIKRTVAAPSVFIFPPSDEQLKSGTASVVCLLNNFYPREAKVQWKVDNALQSGNSQESVTEQDSKDSTYSLSSTLTLSKADYEKHKVYACEVTHQGLSSPVTKSFNRGEC
notes: also called R2-A12 hIgG1
B2: ABX0040 (bispecific antibody)
chain 1: not shown
chain 2: DIQMTQSPSSLSASVGDRVTITCRASQSISSYLNWYQQKPGKAPKLLIYAASSLQSGVPSRFSGSGSGTDFTLTISSLQPEDFATYYCQQSATYWDMFGQGTKVEIKRTVAAPSVFIFPPSDEQLKSGTASVVCLLNNFYPREAKVQWKVDNALQSGNSQESVTEQDSKDSTYSLSSTLTLSKADYEKHKVYACEVTHQGLSSPVTKSFNRGEC
chain 3: EVQLVESGGGLVQPKGSLKLSCAASGFTFNTYAMNWVRQAPGKGLEWVARIRSKYNNYATYYADSVKDRFTISRDDSQSILYLQMNNLKTEDTAMYYCVRHGNFGNSYVSWFAYWGQGTLVTVSS
chain 4: QAVVTQESALTTSPGETVTLTCRSSTGAVTTSNYANWVQEKPDHLFTGLIGGTNKRAPGVPARFSGSLIGDKAALTITGAQTEDEAIYFCALWYSNLWVFGGGTKLTVL

Columns and labels:
[1] = target: T1, V-0025 (…)/HLA-A2 02:01 monomer complex (human); assay: ELISA; monomer complex on neutravidin plate
T1 construct: also called V-0025 on HLA-A2*02:01

[2] = target: LL-002 (…)/HLA-E 01:03 monomer complex (human); assay: ELISA; monomer complex on neutravidin plate
[3] = target: T2, V-0018 (…)/HLA-A2 02:01 monomer complex (human); assay: ELISA; monomer complex on neutravidin plate
T2 construct: also called ABI-V-0018; negative control (V-0018)

[4] = target: V-0038 (…)/HLA-E 01:03 monomer complex (human); assay: ELISA; monomer complex on neutravidin plate
[5] = target: P-0550 (…)/HLA-E monomer complex (human); assay: ELISA; monomer complex on neutravidin plate
[6] = target: LL-001 (…)/HLA-E 01:03 monomer complex (human); assay: ELISA; monomer complex on neutravidin plate
[7] = target: 0003-A2 (…)/HLA-A2 02:01 monomer complex (human); assay: ELISA; monomer complex on neutravidin plate
[8] = target: V-0013 (…)/HLA-E 01:03 monomer complex (human); assay: ELISA; monomer complex on neutravidin plate
[9] = target: 0002-A2 (…)/HLA-A2 02:01 monomer complex (human); assay: ELISA; monomer complex on neutravidin plate
[10] = target: T3, HLA-G signal peptide/HLA-E*0103 complex (ABI-V-0025; …) (human); assay: label-free (ResoSens, Resonant Sensors); ABX0020 captured by anti-IgG-Fc, V-0025 HLA-E 01:03 monomer in solution (monovalent)
T3 construct: also called 0025-E 01:03 monomer complex; V-0025 HLA-E 01:03 monomer complex
Method: (§1) The method for determining the affinity was as follows. Thermofisher Capture Select™ Biotin anti-IgG-Fc (Hu) (diluted PBS buffer) was immobilized on neutravidin coated Bionetic label-free microarray plate at 5 ug/ml until binding reached equilibrium. Plate subsequently was washed 3× with 0.1% BSA, 0.1% Tween20, PBS dilution/wash buffer. […] Plate was subsequently washed in dilution/wash buffer 3×. V-0025 HLA-E 01:03 monomer complex (serial dilutions starting at 5 ug/ml in dilution/wash buffer) was added to wells and allowed to incubate for 20 minutes to determine the binding association and then immediately followed by dissociation (dilution/wash buffer) for approximately 25 minutes. Binding affinity calculated using Tracedrawer kinetic analysis software.

[11] = target: T3, HLA-G signal peptide/HLA-E*0103 complex …; assay: label-free (ResoSens), against the Octet value of R4
Method: as §1

[12] = target: V-0021 (…)/HLA-E 01:03 monomer complex (human); assay: ELISA; monomer complex 0.25 µg/ml on neutravidin plate, antibody 1 µg/ml
[13] = target: T3, HLA-G signal peptide/HLA-E*0103 complex …; assay: label-free (ResoSens); V-0025 HLA-E 01:03 monomer on neutravidin plate, ABX0040 in solution

Binder	binding result [1]	binding result [2]	binding result [3]	binding result [4]	binding result [5]	binding result [6]	binding result [7]	binding result [8]	binding result [9]	Kd [10] [nM]	fold improvement of KD over the R4 clone [11] [fold]	binding result [12]	Kd [13] [nM]
B1	no binding (tested: antibody 1 µg/ml, antigen 0.25 µg/ml)	no binding (tested: antibody 1 µg/ml, antigen 0.25 µg/ml)	no binding (tested: antibody 1 µg/ml, antigen 0.25 µg/ml)	no binding (tested: antibody 1 µg/ml, antigen 0.25 µg/ml)	no binding (tested: antibody 1 µg/ml, antigen 0.25 µg/ml)	no binding (tested: antibody 1 µg/ml, antigen 0.25 µg/ml)	no binding (tested: antibody 1 µg/ml, antigen 0.25 µg/ml)	no binding (tested: antibody 1 µg/ml, antigen 0.25 µg/ml)	no binding (tested: antibody 1 µg/ml, antigen 0.25 µg/ml)	1.87	> 200	binds	–
B2	–	–	–	–	–	–	–	–	–	–	–	–	1.57
